Consider 2 proteins from US20090124546A1 (EBERHARD KARLS UNIVERSITAET TUEBINGEN UNIVERSITAETSKILINIKUM, published 2009).

The data set deals with the molecule itself. Kind of data set: SDS-PAGE and Western blot of synthetic peptide (self-association). The protocol:
Western blot analysis. After physical exercise sweat of the forehead was collected and analyzed by Western blot as already described (Rieg, S. et al. 2006 J. Investig. Dermatol. 126:354-365). Briefly, sweat was centrifuged 3 min at 13,000 rpm (16,000×g) to remove particles and frozen. Then, 15-μl portions of the samples and 4 μg of the DCD peptides LEK-45 and DCD-1L dissolved in water were separated by sodium dodecyl sulfate-polyacrylamide gel electrophoresis (using 15% acrylamide with 0.05% bisacrylamide), transferred electrophoretically (1200 mA/h) onto polyvinylidene difluoride membrane sheets (Immobilon-PSQ; Millipore, Germany) with a tank type blotter and then blocked in 10% nonfat milk in PBS (pH 7.4) for 30 min at room temperature. After incubation with a rabbit polyclonal anti-DCD antibody (1:2,000) that detects the C terminus of DCD-1L overnight at 4° C., the membrane sheets were washed with phosphate buffer and incubated with an anti-rabbit secondary biotin-conjugated polyclonal antibody (1:1,500 in blocking solution). After washing in phosphate buffer the Streptavidin-AP-conjugate (Roche, Mannheim, Germany) was used for the detection of biotin-labeled secondary antibody. The membrane was immersed in CDP-Star solution (Western Lightning chemiluminescence reagents for AP; Roche) for 10 min and then exposed to X-ray film (Eastman Kodak, Rochester, N.Y.).
For orientation: Immunoblotting shows a protein as a band on a membrane.

As for SSLLEKGLDGAKKAVGGLGKLGKDAVEDLESVGKGAVHDVKDVLDSVL (also called synthetic peptide DCD-1L) [DCD-1L], the binding result is recorded as “binds”.
With LEKGLDGAKKAVGGLGKLGKDAVEDLESVGKGAVHDVKDVLDSVL [LEK-45], the binding result is listed as “binds”.
